B1: B. thuringiensis serovar israelensis LexA (natural protein)
chain: MEKLTKRQQDILDFIKLKVQEKGYPPSVREIGQAVGLASSSTVHGHLSRLEEKGYIRRDPTKPRAIEILGEDRMDTETQSVIQVPIVGKVTAGLPITAVESVEEHFPLPASIVAGADQVFMLRISGDSMIEAGIFDGDLVVVRQQQSAYNGEIVVALTEDNEATVKRFYKEKDHFRLQPENSSLEPIILKQVSVIGKVIGVYRDLH

Experiment in all cases: SPR
Test [1] addresses B1.
Test [2] concerns the target tectiviral gp7 homolog from the phage found in B. thuringiensis serovar aizawai (tectiviral phage found in B. …).
For test [3], the target named is tectiviral gp7 homolog from B. anthracis phage AP50 (phage AP50 (B. anthracis)).
Test [4] deals with tectiviral gp7 homolog from the phage found in B. cereus VD184 (tectiviral phage found in B. cereus …).
Test [5] addresses tectiviral gp7 homolog from B. cereus AND1284 phage Sato (phage Sato (B. cereus AND1284)).

Kd data for three molecules are collected here from publication PMC9700832 (2022).

The term Kd denotes the concentration at which binding is half-saturated. A high value points to lower affinity. In turn, MRDKLLDFIIELSQSSKQVVSKSYVIDRLMQVTKEDYKELEKNVEGKKDD (natural protein) [gp7 protein of GIL01 phage] gave a Kd in test [1] of 169 nM.
B1: the dissociation constant Kd in test [2] turned out to be 150 nM; in test [3], 167 nM; in test [4] it was 148 nM; in test [5] it was 190 nM.
Regarding MRDKLLDFIIELSQSSKQVVAKDYVIDRLMQVTKEDYKEMEKKTEGKKN (natural protein) [tectiviral gp7 homolog from B. mycoides VDm034 phage Lima], the Kd in test [1] was 185 nM.
